Patent US20220177587A1, “METHODS AND USES OF VARIANT CD80 FUSION PROTEINS AND RELATED CONSTRUCTS” (Alpine Immune Sciences, Inc., priority 2018, published 2022)

B1: M47L (protein)
chain: VIHVTKEVKEVATLSCGHNVSVEELAQTRIYWQKEKKMVLTMMSGDLNIWPEYKNRTIFDITNNLSIVILALRPSDEGTYECVVLKYEKDAFKREHLAEVTLSVKAD
B2: D46V/M47L/V68M (protein)
chain: VIHVTKEVKEVATLSCGHNVSVEELAQTRIYWQKEKKMVLTMMSGVLNIWPEYKNRTIFDITNNLSIMILALRPSDEGTYECVVLKYEKDAFKREHLAEVTLSVKAD
B3: M47V (protein)
chain: VIHVTKEVKEVATLSCGHNVSVEELAQTRIYWQKEKKMVLTMMSGDVNIWPEYKNRTIFDITNNLSIVILALRPSDEGTYECVVLKYEKDAFKREHLAEVTLSVKAD
B4: D46V/L85Q (protein)
chain: VIHVTKEVKEVATLSCGHNVSVEELAQTRIYWQKEKKMVLTMMSGVMNIWPEYKNRTIFDITNNLSIVILALRPSDEGTYECVVQKYEKDAFKREHLAEVTLSVKAD
B5: E35D/M47L/V68M (protein)
chain: VIHVTKEVKEVATLSCGHNVSVEELAQTRIYWQKDKKMVLTMMSGDLNIWPEYKNRTIFDITNNLSIMILALRPSDEGTYECVVLKYEKDAFKREHLAEVTLSVKAD
B6: D46V/M47L/L85Q (protein)
chain: VIHVTKEVKEVATLSCGHNVSVEELAQTRIYWQKEKKMVLTMMSGVLNIWPEYKNRTIFDITNNLSIVILALRPSDEGTYECVVQKYEKDAFKREHLAEVTLSVKAD
B7: E35D/D46V/M47L/V68M/L85Q (protein)
chain: VIHVTKEVKEVATLSCGHNVSVEELAQTRIYWQKDKKMVLTMMSGVLNIWPEYKNRTIFDITNNLSIMILALRPSDEGTYECVVQKYEKDAFKREHLAEVTLSVKAD
B8: D46V/V68M (protein)
chain: VIHVTKEVKEVATLSCGHNVSVEELAQTRIYWQKEKKMVLTMMSGVMNIWPEYKNRTIFDITNNLSIMILALRPSDEGTYECVVLKYEKDAFKREHLAEVTLSVKAD
B9: E35D/D46V/M47L/L85Q (protein)
chain: VIHVTKEVKEVATLSCGHNVSVEELAQTRIYWQKDKKMVLTMMSGVLNIWPEYKNRTIFDITNNLSIVILALRPSDEGTYECVVQKYEKDAFKREHLAEVTLSVKAD
B10: E35D/V68M/L85Q (protein)
chain: VIHVTKEVKEVATLSCGHNVSVEELAQTRIYWQKDKKMVLTMMSGDMNIWPEYKNRTIFDITNNLSIMILALRPSDEGTYECVVQKYEKDAFKREHLAEVTLSVKAD
B11: E24D/E35D/M47L/V68M/E95V/L97Q (protein, UniProt P33681 35-288, looked up, variant E24D E35D M47L V68M E95V L97Q)
T-lymphocyte activation …: VIHVTKEVKEVATLSCGHNVSVEDLAQTRIYWQKDKKMVLTMMSGDLNIWPEYKNRTIFDITNNLSIMILALRPSDEGTYECVVLKYEKDAFKRVHQAEVTLSVKADFPTPSISDFEIPTSNIRRIICSTSGGFPEPHLSWLENGEELNAINTTVSQDPETELYAVSSKLDFNMTTNHSFMCLIKYGHLRVNQTFNWNTTKQEHFPDNLLPSWAITLISVNGIFVICCLTYCFAPRCRERRRNERLRRESVRPV
B12: T13R/Q33R/E35D/M47L/V68M/L85M (protein)
chain: VIHVTKEVKEVARLSCGHNVSVEELAQTRIYWRKDKKMVLTMMSGDLNIWPEYKNRTIFDITNNLSIMILALRPSDEGTYECVVMKYEKDAFKREHLAEVTLSVKADFPTPSISDFETPTSNIRRIICSTSGGFPEPHLSWLENGEELNAINTTVSQDPETELYAVSSKLDFNMTTNHSFMCLIKYGHLRVNQTFNWNTTKQEHFPDN
modifications: CD80 v382 ECD

How the values were obtained:
CD28 [1] = biological target: T1, CD28 (Homo sapiens, UniProt P10747); experiment: Flow binding to Jurkat/IL2 reporter cells (CD28); set-up: host or cells: Jurkat cells expressing an IL-2-luciferase reporter; conditions: for CD28 MFI at 33.3 nM: Jurkats (CD28)
How it was run: (§1)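 Cells were first blocked in PBS with 1% BSA and 0.1% sodium azide. Primary staining with fusion protein ran 45 min on ice, and secondary staining with PE anti-human Fc at 1:150 ran 30 min on ice.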

CD28 [2] = biological target: T1, CD28; experiment: Jurkat/IL2 + CHO/OKT3 +/- PD-L1 reporter assay: PD-L1-dependent CD28 costimulation; assay type: cell-based; set-up: host or cells: Jurkat cells expressing an IL-2-luciferase reporter; conditions: Jurkat/IL2 + CHO/OKT3/PD-L1; for Fold Increase over WT CD80-IgV-Fe / Relative Luciferase Units (RLU), CD80 Cone 5.0 nM: 5.0 nM
How it was run: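 Readout is relative luminescence from lysed cocultures: test protein given 15 min at room temperature to Jurkat cells before adding CHO artificial APCs displaying OKT3 alone or OKT3 plus PD-L1, then 5 h at 37 °C, 5% CO2.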

huCTLA4 = huCTLA4 (Homo sapiens, UniProt P16410); experiment: Flow binding to CHO cells stably expressing CTLA4; set-up: huCTLA4 and huPD-L1, full-length mammalian surface expression constructs were generated; expressed in transfected cells; host or cells: CHO cells, lentiviral transduction, sorted to >98% purity; conditions: for CTLA4 MFI at 33.3 nM: CHO cells stably expressing CTLA4
Chain of huCTLA4 (P16410 36-223): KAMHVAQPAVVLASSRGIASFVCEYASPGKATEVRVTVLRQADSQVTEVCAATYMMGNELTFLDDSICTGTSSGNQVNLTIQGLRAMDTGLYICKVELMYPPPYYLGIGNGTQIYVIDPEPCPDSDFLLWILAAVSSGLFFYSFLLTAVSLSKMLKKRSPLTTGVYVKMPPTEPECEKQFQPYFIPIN
How it was run: as §1

huPD-L1 = huPD-L1 (Homo sapiens, UniProt Q9NZQ7); experiment: Flow binding to CHO cells stably expressing PD-L1; set-up: huCTLA4 and huPD-L1, full-length mammalian surface expression constructs were generated; expressed in transfected cells; host or cells: CHO cells, lentiviral transduction, sorted to >98% purity; conditions: for PD-L1 MFI at 33.3 nM: CHO cells stably expressing PD-L1
Chain of huPD-L1 (Q9NZQ7 19-290): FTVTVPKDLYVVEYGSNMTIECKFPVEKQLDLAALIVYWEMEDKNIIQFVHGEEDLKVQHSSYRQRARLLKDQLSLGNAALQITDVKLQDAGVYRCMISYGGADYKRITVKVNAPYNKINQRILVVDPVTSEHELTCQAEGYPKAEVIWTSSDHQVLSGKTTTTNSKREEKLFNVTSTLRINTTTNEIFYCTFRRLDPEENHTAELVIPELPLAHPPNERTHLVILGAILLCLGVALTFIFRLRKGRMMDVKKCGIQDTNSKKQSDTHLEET
How it was run: as §1

[3] = Table E19, MFI at 33.3 nM relative to WT CD80 ECD-Fc (Abcam)
[4] = Table E19, ratio of MFI at 33.3 nM
[5] = Table E11, 33.3 nM, listed as WT CD80 ECD-Fc = 1.0

Molecule | CD28 MFI at 33.3 nM (CD28 [1]; Table E19, 33.3 nM) | CD28 Fold change to WT CD80 (CD28 [1]; [3]) [fold] | Fold Increase over WT CD80-IgV-Fe (CD28 [2]; Table E21) [fold] | Relative Luciferase Units (RLU), CD80 Conc 5.0 nM (CD28 [2]; Table E21) [RLU] | CTLA4 MFI at 33.3 nM (huCTLA4; Table E19, 33.3 nM) | CTLA4 Fold change to WT CD80 (huCTLA4; [3]) [fold] | PD-L1 MFI at 33.3 nM (huPD-L1; Table E19, 33.3 nM) | PD-L1 Fold change to WT CD80 (huPD-L1; [3]) [fold] | Ratio of PDL1:CD28 (huPD-L1; [4]) | CD28 Fold change to WT CD80 (CD28 [1]; [5]) | CD28 MFI at 33.3 nM (CD28 [1]; Table E11, 33.3 nM) | Fold Increase over WT CD80-IgV-Fe (CD28 [2]; Table E13) | Relative Luciferase Units (RLU), CD80 Cone 5.0 nM (CD28 [2]; Table E13) [RLU] | CTLA4 Fold change to WT CD80 (huCTLA4; [5]) | CTLA4 MFI at 33.3 nM (huCTLA4; Table E11, 33.3 nM) | PD-L1 Fold change to WT CD80 (huPD-L1; [5]) | PD-L1 MFI at 33.3 nM (huPD-L1; Table E11, 33.3 nM) | Ratio of PDL1:CD28 (huPD-L1; Table E11, MFI at 33.3 nM)
B1 | 309 | 0.4 | 4.6 | 530 | 30774 | 0.8 | 1895 | 14.8 | 6.1 |  |  |  |  |  |  |  |  | 
B2 | 2183 | 3.1 | 6.3 | 724 | 34688 | 0.9 | 28020 | 218.9 | 12.8 |  |  |  |  |  |  |  |  | 
B3 | 68.7 | 0.1 | 3.9 | 445 | 33341 | 0.8 | 2317 | 18.1 | 33.7 |  |  |  |  |  |  |  |  | 
B4 | 131 | 0.2 | 3.0 | 342 | 41896 | 1.0 | 2197 | 17.2 | 16.8 |  |  |  |  |  |  |  |  | 
B5 | 1243 | 1.8 | 6.5 | 749 | 28603 | 0.7 | 27896 | 217.9 | 22.4 |  |  |  |  |  |  |  |  | 
B6 | 567 | 0.8 | 5.2 | 598 | 40153 | 1.0 | 5976 | 46.7 | 10.5 |  |  |  |  |  |  |  |  | 
B7 | 464 | 0.7 | 6.2 | 712 | 26207 | 0.6 | 28418 | 222.0 | 61.2 |  |  |  |  |  |  |  |  | 
B8 | 556 | 0.8 | 2.5 | 292 | 5334 | 0.1 | 2271 | 17.7 | 4.1 |  |  |  |  |  |  |  |  | 
B9 | 268 | 0.4 | 4.2 | 481 | 38150 | 0.9 | 7523 | 58.8 | 28.1 |  |  |  |  |  |  |  |  | 
B10 | 76.2 | 0.1 | 4.4 | 511 | 42761 | 1.1 | 5971 | 46.6 | 78.4 |  |  |  |  |  |  |  |  | 
B11 |  |  |  |  |  |  |  |  |  | 0.5 | 15 | 2.7 | 1087 | 8.8 | 15505 | 362.1 | 18649 | 1268.6
B12 |  |  |  |  |  |  |  |  |  | 3.6 | 112 | 2.9 | 1160 | 7.7 | 13438 | 367.7 | 18938 | 169.1
